Measured values from US20200299347A1 (Merck KGaA, published 2020).

What was measured:
FGFR3 = assay: cell-based or functional assay
NGF = assay: cell-based or functional assay
Chain of NGF (P01138 122-241): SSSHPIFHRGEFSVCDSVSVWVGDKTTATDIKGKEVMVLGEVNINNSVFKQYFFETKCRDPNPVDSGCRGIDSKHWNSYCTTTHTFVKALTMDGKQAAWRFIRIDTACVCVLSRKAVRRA

B1: FGF18_Fab fasinumab (LH) (other)
light: EENVDFRIHVENQTRARDDVSRKQLRLYQLYSRTSGKHIQVLGRRISARGEDGDKYAQLLVETDTFGSQVRIKGKETEFYLCMNRKGKLVGKPDGTSKECVFIEKVLENNYTALMSAKYSGWYVGFTKKGRPRKGPKTRENQQDVHFMKRYPKGQPELQKPFKYTTVTKGGGGSGGGGSDIQMTQSPSSLSASAGDRVTITCRASQAIRNDLGWYQQKPGKAPKRLIYAAFNLQSGVPSRFSGSGSGTEFTLTISSLQPEDLASYYCQQYNRYPWTFGQGTKVEIKRTVAAPSVFIFPPSDEQLKSGTASVVCLLNNFYPREAKVQWKVDNALQSGNSQESVTEQDSKDSTYSLSSTLTLSKADYEKHKVYACEVTHQGLSSPVTKSFNRGEC
heavy: QVQLVQSGAEVKKPGASVKVSCKVSGFTLTELSIHWVRQAPGKGLEWMGGFDPEDGETIYAQKFQGRVTMTEDTSTDTAYMELTSLRSEDTAVYYCSTIFGVVTNFDNWGQGTLVTVSSASTKGPSVFPLAPSSKSTSGGTAALGCLVKDYFPEPVTVSWNSGALTSGVHTFPAVLQSSGLYSLSSVVTVPSSSLGTQTYICNVNHKPSNTKVDKKVEPKSC
In the case of B1, the “FGF18 EC50 (nM), BaF3/FGFR3 assay; construct from HEK293” value (FGFR3) is reported as 0.27 nM, the “FGF18 EC50 (nM), BaF3/FGFR3 assay; construct from expiCHO-S” value (FGFR3) is reported as 0.1 nM and the “anti-NGF IC50 (nM), U2OS TrkA_p75 assay; construct from HEK293” value (NGF) is reported as 0.54 nM. For the same binder, the “anti-NGF IC50 (nM), U2OS TrkA_p75 assay; construct from expiCHO-S” value (from here on “anti-NGF IC50 (nM) … from expiCHO-S”) (NGF) was 1.56 nM.

B2: FGF18_Fab tanezumab (HL) (other)
heavy: EENVDFRIHVENQTRARDDVSRKQLRLYQLYSRTSGKHIQVLGRRISARGEDGDKYAQLLVETDTFGSQVRIKGKETEFYLCMNRKGKLVGKPDGTSKECVFIEKVLENNYTALMSAKYSGWYVGFTKKGRPRKGPKTRENQQDVHFMKRYPKGQPELQKPFKYTTVTKGGGGSGGGGSQVQLQESGPGLVKPSETLSLTCTVSGFSLIGYDLNWIRQPPGKGLEWIGIIWGDGTTDYNSAVKSRVTISKDTSKNQFSLKLSSVTAADTAVYYCARGGYWYATSYYFDYWGQGTLVTVSSASTKGPSVFPLAPSSKSTSGGTAALGCLVKDYFPEPVTVSWNSGALTSGVHTFPAVLQSSGLYSLSSVVTVPSSSLGTQTYICNVNHKPSNTKVDKKVEPKSC
light: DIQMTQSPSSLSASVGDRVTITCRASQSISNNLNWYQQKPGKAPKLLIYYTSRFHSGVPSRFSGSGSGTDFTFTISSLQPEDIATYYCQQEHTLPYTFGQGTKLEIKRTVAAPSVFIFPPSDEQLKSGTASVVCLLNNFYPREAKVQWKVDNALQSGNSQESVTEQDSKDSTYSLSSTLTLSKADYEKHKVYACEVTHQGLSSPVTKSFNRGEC
With B2 the “FGF18 EC50 (nM), BaF3/FGFR3 assay; construct from expiCHO-S” value (FGFR3) was 0.05 nM and the “anti-NGF IC50 (nM) … from expiCHO-S” value (NGF) was 0.84 nM.

B3: FGF18 SEED fulranumab (SEED-B) (other)
chain: EENVDFRIHVENQTRARDDVSRKQLRLYQLYSRTSGKHIQVLGRRISARGEDGDKYAQLLVETDTFGSQVRIKGKETEFYLCMNRKGKLVGKPDGTSKECVFIEKVLENNYTALMSAKYSGWYVGFTKKGRPRKGPKTRENQQDVHFMKRYPKGQPELQKPFKYTTVTKGGGGSGGGGSDKTHTCPPCPAPEAAGGPSVFLFPPKPKDTLMISRTPEVTCVVVDVSHEDPEVKFNWYVDGVEVHNAKTKPREEQYNSTYRVVSVLTVLHQDWLNGKEYKCKVSNKALPAPIEKTISKAKGQPFRPEVHLLPPSREEMTKNQVSLTCLARGFYPKDIAVEWESNGQPENNYKTTPSRQEPSQGTTTFAVTSKLTVDKSRWQQGNVFSCSVMHEALHNHYTQKTISLSPGK
heavy: EVQLVESGGGLVQPGGSLRLSCAASGFTLRSYSMNWVRQAPGKGLEWVSYISRSSHTIFYADSVKGRFTISRDNAKNSLYLQMDSLRDEDTAMYYCARVYSSGWHVSDYFDYWGQGILVTVSSASTKGPSVFPLAPSSKSTSGGTAALGCLVKDYFPEPVTVSWNSGALTSGVHTFPAVLQSSGLYSLSSVVTVPSSSLGTQTYICNVNHKPSNTKVDKKVEPKSCDKTHTCPPCPAPEAAGGPSVFLFPPKPKDTLMISRTPEVTCVVVDVSHEDPEVKFNWYVDGVEVHNAKTKPREEQYNSTYRVVSVLTVLHQDWLNGKEYKCKVSNKALPAPIEKTISKAKGQPREPQVYTLPPPSEELALNELVTLTCLVKGFYPSDIAVEWLQGSQELPREKYLTWAPVLDSDGSFFLYSILRVAAEDWKKGDTFSCSVMHEALHNRFTQKSLDRSPGK
light: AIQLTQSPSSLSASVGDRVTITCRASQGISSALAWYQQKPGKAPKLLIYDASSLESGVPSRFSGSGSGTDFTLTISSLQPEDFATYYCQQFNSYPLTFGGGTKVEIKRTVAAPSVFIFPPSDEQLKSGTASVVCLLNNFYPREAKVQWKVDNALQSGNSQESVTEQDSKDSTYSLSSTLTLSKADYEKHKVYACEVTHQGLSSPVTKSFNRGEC
For B3, the “FGF18 EC50 (nM), BaF3/FGFR3 assay; construct from expiCHO-S” value (FGFR3) was 0.06 nM and the “anti-NGF IC50 (nM) … from expiCHO-S” value (NGF) was 0.25 nM.

B4: FGF18_Fab tanezumab (LH) (other)
light: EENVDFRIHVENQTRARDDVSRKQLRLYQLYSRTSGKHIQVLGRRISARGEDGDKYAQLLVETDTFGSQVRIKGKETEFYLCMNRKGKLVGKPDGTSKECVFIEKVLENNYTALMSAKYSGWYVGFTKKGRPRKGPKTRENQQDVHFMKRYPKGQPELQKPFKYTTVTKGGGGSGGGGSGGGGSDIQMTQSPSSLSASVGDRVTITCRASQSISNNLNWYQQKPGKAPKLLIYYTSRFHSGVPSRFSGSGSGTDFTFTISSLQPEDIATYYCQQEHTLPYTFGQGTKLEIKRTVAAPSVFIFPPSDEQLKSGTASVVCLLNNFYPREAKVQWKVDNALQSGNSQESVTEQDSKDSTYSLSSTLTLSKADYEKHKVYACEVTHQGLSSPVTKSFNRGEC
heavy: QVQLQESGPGLVKPSETLSLTCTVSGFSLIGYDLNWIRQPPGKGLEWIGIIWGDGTTDYNSAVKSRVTISKDTSKNQFSLKLSSVTAADTAVYYCARGGYWYATSYYFDYWGQGTLVTVSSASTKGPSVFPLAPSSKSTSGGTAALGCLVKDYFPEPVTVSWNSGALTSGVHTFPAVLQSSGLYSLSSVVTVPSSSLGTQTYICNVNHKPSNTKVDKKVEPKSC
For B4, the “FGF18 EC50 (nM), BaF3/FGFR3 assay; construct from HEK293” value (FGFR3) was 0.21 nM, the “FGF18 EC50 (nM), BaF3/FGFR3 assay; construct from expiCHO-S” value (FGFR3) was 0.08 nM and the “anti-NGF IC50 (nM), U2OS TrkA_p75 assay; construct from HEK293” value (NGF) was 0.52 nM. The “anti-NGF IC50 (nM) … from expiCHO-S” value (NGF) was 0.86 nM.

B5: FGF18 SEED tanezumab (MBE626) (other)
chain: EENVDFRIHVENQTRARDDVSRKQLRLYQLYSRTSGKHIQVLGRRISARGEDGDKYAQLLVETDTFGSQVRIKGKETEFYLCMNRKGKLVGKPDGTSKECVFIEKVLENNYTALMSAKYSGWYVGFTKKGRPRKGPKTRENQQDVHFMKRYPKGQPELQKPFKYTTVTKGGSGGSGSGSEPKSSDKTHTCPPCPAPEAAGGPSVFLFPPKPKDTLMISRTPEVTCVVVDVSHEDPEVKFNWYVDGVEVHNAKTKPREEQYNSTYRVVSVLTVLHQDWLNGKEYKCKVSNKALPAPIEKTISKAKGQPFRPEVHLLPPSREEMTKNQVSLTCLARGFYPKDIAVEWESNGQPENNYKTTPSRQEPSQGTTTFAVTSKLTVDKSRWQQGNVFSCSVMHEALHNHYTQKTISLSPGK
heavy: QVQLQESGPGLVKPSETLSLTCTVSGFSLIGYDLNWIRQPPGKGLEWIGIIWGDGTTDYNSAVKSRVTISKDTSKNQFSLKLSSVTAADTAVYYCARGGYWYATSYYFDYWGQGTLVTVSSASTKGPSVFPLAPSSKSTSGGTAALGCLVKDYFPEPVTVSWNSGALTSGVHTFPAVLQSSGLYSLSSVVTVPSSSLGTQTYICNVNHKPSNTKVDKKVEPKSCDKTHTCPPCPAPEAAGGPSVFLFPPKPKDTLMISRTPEVTCVVVDVSHEDPEVKFNWYVDGVEVHNAKTKPREEQYNSTYRVVSVLTVLHQDWLNGKEYKCKVSNKALPAPIEKTISKAKGQPREPQVYTLPPPSEELALNELVTLTCLVKGFYPSDIAVEWLQGSQELPREKYLTWAPVLDSDGSFFLYSILRVAAEDWKKGDTFSCSVMHEALHNRFTQKSLDRSPGK
light: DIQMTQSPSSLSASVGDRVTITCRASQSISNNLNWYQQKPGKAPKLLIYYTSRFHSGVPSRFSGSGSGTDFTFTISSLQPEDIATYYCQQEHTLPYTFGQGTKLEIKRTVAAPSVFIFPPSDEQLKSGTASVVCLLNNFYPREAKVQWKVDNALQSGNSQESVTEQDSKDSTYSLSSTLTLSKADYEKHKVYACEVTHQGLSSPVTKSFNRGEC
With B5 the “FGF18 EC50 (nM), BaF3/FGFR3 assay; construct from expiCHO-S” value (FGFR3) was 0.05 nM and the “anti-NGF IC50 (nM) … from expiCHO-S” value (NGF) was 0.44 nM.

B6: FGF18_Fab fulranumab (LH) (other)
light: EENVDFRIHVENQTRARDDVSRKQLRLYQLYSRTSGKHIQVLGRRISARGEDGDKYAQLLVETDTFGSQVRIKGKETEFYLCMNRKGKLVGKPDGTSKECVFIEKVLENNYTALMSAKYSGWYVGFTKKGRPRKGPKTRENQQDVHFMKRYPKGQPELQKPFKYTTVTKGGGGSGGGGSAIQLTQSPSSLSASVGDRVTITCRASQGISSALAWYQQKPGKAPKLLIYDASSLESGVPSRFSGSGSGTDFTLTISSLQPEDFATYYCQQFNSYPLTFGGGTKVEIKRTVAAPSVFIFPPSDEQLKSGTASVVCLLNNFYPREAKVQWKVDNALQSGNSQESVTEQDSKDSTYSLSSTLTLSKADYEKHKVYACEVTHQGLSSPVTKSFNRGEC
heavy: EVQLVESGGGLVQPGGSLRLSCAASGFTLRSYSMNWVRQAPGKGLEWVSYISRSSHTIFYADSVKGRFTISRDNAKNSLYLQMDSLRDEDTAMYYCARVYSSGWHVSDYFDYWGQGILVTVSSASTKGPSVFPLAPSSKSTSGGTAALGCLVKDYFPEPVTVSWNSGALTSGVHTFPAVLQSSGLYSLSSVVTVPSSSLGTQTYICNVNHKPSNTKVDKKVEPKSC
For B6, the “FGF18 EC50 (nM), BaF3/FGFR3 assay; construct from expiCHO-S” value (FGFR3) was 0.07 nM and the “anti-NGF IC50 (nM) … from expiCHO-S” value (NGF) was 1.61 nM.

B7: FGF18_Fab fasinumab (HL) (other)
heavy: EENVDFRIHVENQTRARDDVSRKQLRLYQLYSRTSGKHIQVLGRRISARGEDGDKYAQLLVETDTFGSQVRIKGKETEFYLCMNRKGKLVGKPDGTSKECVFIEKVLENNYTALMSAKYSGWYVGFTKKGRPRKGPKTRENQQDVHFMKRYPKGQPELQKPFKYTTVTKGGGGSGGGGSQVQLVQSGAEVKKPGASVKVSCKVSGFTLTELSIHWVRQAPGKGLEWMGGFDPEDGETIYAQKFQGRVTMTEDTSTDTAYMELTSLRSEDTAVYYCSTIFGVVTNFDNWGQGTLVTVSSASTKGPSVFPLAPSSKSTSGGTAALGCLVKDYFPEPVTVSWNSGALTSGVHTFPAVLQSSGLYSLSSVVTVPSSSLGTQTYICNVNHKPSNTKVDKKVEPKSC
light: DIQMTQSPSSLSASAGDRVTITCRASQAIRNDLGWYQQKPGKAPKRLIYAAFNLQSGVPSRFSGSGSGTEFTLTISSLQPEDLASYYCQQYNRYPWTFGQGTKVEIKRTVAAPSVFIFPPSDEQLKSGTASVVCLLNNFYPREAKVQWKVDNALQSGNSQESVTEQDSKDSTYSLSSTLTLSKADYEKHKVYACEVTHQGLSSPVTKSFNRGEC
In the case of B7, the “FGF18 EC50 (nM), BaF3/FGFR3 assay; construct from expiCHO-S” value (FGFR3) is reported as 0.06 nM and the “anti-NGF IC50 (nM) … from expiCHO-S” value (NGF) is reported as 1.33 nM.

B8: FGF18 SEED fasinumab (SEED-A) (other)
chain: EENVDFRIHVENQTRARDDVSRKQLRLYQLYSRTSGKHIQVLGRRISARGEDGDKYAQLLVETDTFGSQVRIKGKETEFYLCMNRKGKLVGKPDGTSKECVFIEKVLENNYTALMSAKYSGWYVGFTKKGRPRKGPKTRENQQDVHFMKRYPKGQPELQKPFKYTTVTKGGGGSGGGGSDKTHTCPPCPAPEAAGGPSVFLFPPKPKDTLMISRTPEVTCVVVDVSHEDPEVKFNWYVDGVEVHNAKTKPREEQYNSTYRVVSVLTVLHQDWLNGKEYKCKVSNKALPAPIEKTISKAKGQPFRPEVHLLPPSREEMTKNQVSLTCLARGFYPKDIAVEWESNGQPENNYKTTPSRQEPSQGTTTFAVTSKLTVDKSRWQQGNVFSCSVMHEALHNHYTQKTISLSPGK
heavy: QVQLVQSGAEVKKPGASVKVSCKVSGFTLTELSIHWVRQAPGKGLEWMGGFDPEDGETIYAQKFQGRVTMTEDTSTDTAYMELTSLRSEDTAVYYCSTIFGVVTNFDNWGQGTLVTVSSASTKGPSVFPLAPSSKSTSGGTAALGCLVKDYFPEPVTVSWNSGALTSGVHTFPAVLQSSGLYSLSSVVTVPSSSLGTQTYICNVNHKPSNTKVDKKVEPKSCDKTHTCPPCPAPEAAGGPSVFLFPPKPKDTLMISRTPEVTCVVVDVSHEDPEVKFNWYVDGVEVHNAKTKPREEQYNSTYRVVSVLTVLHQDWLNGKEYKCKVSNKALPAPIEKTISKAKGQPREPQVYTLPPPSEELALNELVTLTCLVKGFYPSDIAVEWLQGSQELPREKYLTWAPVLDSDGSFFLYSILRVAAEDWKKGDTFSCSVMHEALHNRFTQKSLDRSPGK
light: DIQMTQSPSSLSASAGDRVTITCRASQAIRNDLGWYQQKPGKAPKRLIYAAFNLQSGVPSRFSGSGSGTEFTLTISSLQPEDLASYYCQQYNRYPWTFGQGTKVEIKRTVAAPSVFIFPPSDEQLKSGTASVVCLLNNFYPREAKVQWKVDNALQSGNSQESVTEQDSKDSTYSLSSTLTLSKADYEKHKVYACEVTHQGLSSPVTKSFNRGEC
For B8, the “FGF18 EC50 (nM), BaF3/FGFR3 assay; construct from expiCHO-S” value (FGFR3) was 0.14 nM and the “anti-NGF IC50 (nM) … from expiCHO-S” value (NGF) was 0.29 nM.

B9: FGF18_Fab fulranumab (HL) (other)
heavy: EENVDFRIHVENQTRARDDVSRKQLRLYQLYSRTSGKHIQVLGRRISARGEDGDKYAQLLVETDTFGSQVRIKGKETEFYLCMNRKGKLVGKPDGTSKECVFIEKVLENNYTALMSAKYSGWYVGFTKKGRPRKGPKTRENQQDVHFMKRYPKGQPELQKPFKYTTVTKGGGGSGGGGSEVQLVESGGGLVQPGGSLRLSCAASGFTLRSYSMNWVRQAPGKGLEWVSYISRSSHTIFYADSVKGRFTISRDNAKNSLYLQMDSLRDEDTAMYYCARVYSSGWHVSDYFDYWGQGILVTVSSASTKGPSVFPLAPSSKSTSGGTAALGCLVKDYFPEPVTVSWNSGALTSGVHTFPAVLQSSGLYSLSSVVTVPSSSLGTQTYICNVNHKPSNTKVDKKVEPKSC
light: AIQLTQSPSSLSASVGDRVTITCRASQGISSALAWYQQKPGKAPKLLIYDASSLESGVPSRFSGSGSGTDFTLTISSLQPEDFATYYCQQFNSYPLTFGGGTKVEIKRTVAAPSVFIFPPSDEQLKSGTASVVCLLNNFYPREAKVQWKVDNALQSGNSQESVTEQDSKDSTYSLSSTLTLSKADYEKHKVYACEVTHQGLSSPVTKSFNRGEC
B9 was tested, and the “FGF18 EC50 (nM), BaF3/FGFR3 assay; construct from expiCHO-S” value (FGFR3) was 0.06 nM and the “anti-NGF IC50 (nM) … from expiCHO-S” value (NGF) was 1.07 nM.
